Source: publication PMC5750132
Like-named read-outs stand apart in the source and are kept apart here.

Tests used:
[1] = molecular target: Truncated mouse TMEM16A (amino acids 1-903) (mouse); experiment: cryo-EM structure
[2] = molecular target: Truncated mouse TMEM16A (amino acids 1-903) (mouse); experiment: cryo-EM structure; remark: listed apart in the source

## Truncated mouse TMEM16A (amino acids 1-903) (domain or fragment)
[1]
  stoichiometry N: 2
[2]
  stoichiometry N: 2
